Values belong to the substance of their own block, whether it stands above or below them.
Columns and labels:
[1] = molecular target: IGF-I receptor of Mv1Lu cells (mink); experiment: cell-based or functional assay
[2] = molecular target: insulin receptor of Mv1Lu cells (mink); experiment: cell-based or functional assay
[3] = molecular target: acidic pH binding sites of Mv1Lu cells; experiment: inhibition of 125I-α2M* binding to Mv1Lu cells at pH 5 or 6
[4] = molecular target: LRP-1 in mouse embryonic fibroblasts (MEF cells) (mouse) (UniProt Q91ZX7); experiment: co-immunoprecipitation with anti-annexin VI IgG from lysates of MEF cells carrying cell surface-bound 125I-α2M* (1 nM, pH 7.4)
[5] = molecular target: TβR-V/LRP-1 in mink lung epithelial cells (Mv1Lu cells) (mink); experiment: inhibition of 10 nM 125I-IGFBP-3 affinity labeling (binding and DSS cross-linking) of TβR-V on Mv1Lu cells
[6] = molecular target: acidic pH binding sites of Mv1Lu cells; experiment: inhibition of 125I-α2M* binding to Mv1Lu cells at pH 6
[7] = molecular target: acidic pH binding sites of MEF cells; experiment: competition with 125I-α2M* binding to MEF cells at pH 5.5

Chain of LRP-1 in mouse embryonic fibroblasts (MEF cells) (mouse) (Q91ZX7 20-4545): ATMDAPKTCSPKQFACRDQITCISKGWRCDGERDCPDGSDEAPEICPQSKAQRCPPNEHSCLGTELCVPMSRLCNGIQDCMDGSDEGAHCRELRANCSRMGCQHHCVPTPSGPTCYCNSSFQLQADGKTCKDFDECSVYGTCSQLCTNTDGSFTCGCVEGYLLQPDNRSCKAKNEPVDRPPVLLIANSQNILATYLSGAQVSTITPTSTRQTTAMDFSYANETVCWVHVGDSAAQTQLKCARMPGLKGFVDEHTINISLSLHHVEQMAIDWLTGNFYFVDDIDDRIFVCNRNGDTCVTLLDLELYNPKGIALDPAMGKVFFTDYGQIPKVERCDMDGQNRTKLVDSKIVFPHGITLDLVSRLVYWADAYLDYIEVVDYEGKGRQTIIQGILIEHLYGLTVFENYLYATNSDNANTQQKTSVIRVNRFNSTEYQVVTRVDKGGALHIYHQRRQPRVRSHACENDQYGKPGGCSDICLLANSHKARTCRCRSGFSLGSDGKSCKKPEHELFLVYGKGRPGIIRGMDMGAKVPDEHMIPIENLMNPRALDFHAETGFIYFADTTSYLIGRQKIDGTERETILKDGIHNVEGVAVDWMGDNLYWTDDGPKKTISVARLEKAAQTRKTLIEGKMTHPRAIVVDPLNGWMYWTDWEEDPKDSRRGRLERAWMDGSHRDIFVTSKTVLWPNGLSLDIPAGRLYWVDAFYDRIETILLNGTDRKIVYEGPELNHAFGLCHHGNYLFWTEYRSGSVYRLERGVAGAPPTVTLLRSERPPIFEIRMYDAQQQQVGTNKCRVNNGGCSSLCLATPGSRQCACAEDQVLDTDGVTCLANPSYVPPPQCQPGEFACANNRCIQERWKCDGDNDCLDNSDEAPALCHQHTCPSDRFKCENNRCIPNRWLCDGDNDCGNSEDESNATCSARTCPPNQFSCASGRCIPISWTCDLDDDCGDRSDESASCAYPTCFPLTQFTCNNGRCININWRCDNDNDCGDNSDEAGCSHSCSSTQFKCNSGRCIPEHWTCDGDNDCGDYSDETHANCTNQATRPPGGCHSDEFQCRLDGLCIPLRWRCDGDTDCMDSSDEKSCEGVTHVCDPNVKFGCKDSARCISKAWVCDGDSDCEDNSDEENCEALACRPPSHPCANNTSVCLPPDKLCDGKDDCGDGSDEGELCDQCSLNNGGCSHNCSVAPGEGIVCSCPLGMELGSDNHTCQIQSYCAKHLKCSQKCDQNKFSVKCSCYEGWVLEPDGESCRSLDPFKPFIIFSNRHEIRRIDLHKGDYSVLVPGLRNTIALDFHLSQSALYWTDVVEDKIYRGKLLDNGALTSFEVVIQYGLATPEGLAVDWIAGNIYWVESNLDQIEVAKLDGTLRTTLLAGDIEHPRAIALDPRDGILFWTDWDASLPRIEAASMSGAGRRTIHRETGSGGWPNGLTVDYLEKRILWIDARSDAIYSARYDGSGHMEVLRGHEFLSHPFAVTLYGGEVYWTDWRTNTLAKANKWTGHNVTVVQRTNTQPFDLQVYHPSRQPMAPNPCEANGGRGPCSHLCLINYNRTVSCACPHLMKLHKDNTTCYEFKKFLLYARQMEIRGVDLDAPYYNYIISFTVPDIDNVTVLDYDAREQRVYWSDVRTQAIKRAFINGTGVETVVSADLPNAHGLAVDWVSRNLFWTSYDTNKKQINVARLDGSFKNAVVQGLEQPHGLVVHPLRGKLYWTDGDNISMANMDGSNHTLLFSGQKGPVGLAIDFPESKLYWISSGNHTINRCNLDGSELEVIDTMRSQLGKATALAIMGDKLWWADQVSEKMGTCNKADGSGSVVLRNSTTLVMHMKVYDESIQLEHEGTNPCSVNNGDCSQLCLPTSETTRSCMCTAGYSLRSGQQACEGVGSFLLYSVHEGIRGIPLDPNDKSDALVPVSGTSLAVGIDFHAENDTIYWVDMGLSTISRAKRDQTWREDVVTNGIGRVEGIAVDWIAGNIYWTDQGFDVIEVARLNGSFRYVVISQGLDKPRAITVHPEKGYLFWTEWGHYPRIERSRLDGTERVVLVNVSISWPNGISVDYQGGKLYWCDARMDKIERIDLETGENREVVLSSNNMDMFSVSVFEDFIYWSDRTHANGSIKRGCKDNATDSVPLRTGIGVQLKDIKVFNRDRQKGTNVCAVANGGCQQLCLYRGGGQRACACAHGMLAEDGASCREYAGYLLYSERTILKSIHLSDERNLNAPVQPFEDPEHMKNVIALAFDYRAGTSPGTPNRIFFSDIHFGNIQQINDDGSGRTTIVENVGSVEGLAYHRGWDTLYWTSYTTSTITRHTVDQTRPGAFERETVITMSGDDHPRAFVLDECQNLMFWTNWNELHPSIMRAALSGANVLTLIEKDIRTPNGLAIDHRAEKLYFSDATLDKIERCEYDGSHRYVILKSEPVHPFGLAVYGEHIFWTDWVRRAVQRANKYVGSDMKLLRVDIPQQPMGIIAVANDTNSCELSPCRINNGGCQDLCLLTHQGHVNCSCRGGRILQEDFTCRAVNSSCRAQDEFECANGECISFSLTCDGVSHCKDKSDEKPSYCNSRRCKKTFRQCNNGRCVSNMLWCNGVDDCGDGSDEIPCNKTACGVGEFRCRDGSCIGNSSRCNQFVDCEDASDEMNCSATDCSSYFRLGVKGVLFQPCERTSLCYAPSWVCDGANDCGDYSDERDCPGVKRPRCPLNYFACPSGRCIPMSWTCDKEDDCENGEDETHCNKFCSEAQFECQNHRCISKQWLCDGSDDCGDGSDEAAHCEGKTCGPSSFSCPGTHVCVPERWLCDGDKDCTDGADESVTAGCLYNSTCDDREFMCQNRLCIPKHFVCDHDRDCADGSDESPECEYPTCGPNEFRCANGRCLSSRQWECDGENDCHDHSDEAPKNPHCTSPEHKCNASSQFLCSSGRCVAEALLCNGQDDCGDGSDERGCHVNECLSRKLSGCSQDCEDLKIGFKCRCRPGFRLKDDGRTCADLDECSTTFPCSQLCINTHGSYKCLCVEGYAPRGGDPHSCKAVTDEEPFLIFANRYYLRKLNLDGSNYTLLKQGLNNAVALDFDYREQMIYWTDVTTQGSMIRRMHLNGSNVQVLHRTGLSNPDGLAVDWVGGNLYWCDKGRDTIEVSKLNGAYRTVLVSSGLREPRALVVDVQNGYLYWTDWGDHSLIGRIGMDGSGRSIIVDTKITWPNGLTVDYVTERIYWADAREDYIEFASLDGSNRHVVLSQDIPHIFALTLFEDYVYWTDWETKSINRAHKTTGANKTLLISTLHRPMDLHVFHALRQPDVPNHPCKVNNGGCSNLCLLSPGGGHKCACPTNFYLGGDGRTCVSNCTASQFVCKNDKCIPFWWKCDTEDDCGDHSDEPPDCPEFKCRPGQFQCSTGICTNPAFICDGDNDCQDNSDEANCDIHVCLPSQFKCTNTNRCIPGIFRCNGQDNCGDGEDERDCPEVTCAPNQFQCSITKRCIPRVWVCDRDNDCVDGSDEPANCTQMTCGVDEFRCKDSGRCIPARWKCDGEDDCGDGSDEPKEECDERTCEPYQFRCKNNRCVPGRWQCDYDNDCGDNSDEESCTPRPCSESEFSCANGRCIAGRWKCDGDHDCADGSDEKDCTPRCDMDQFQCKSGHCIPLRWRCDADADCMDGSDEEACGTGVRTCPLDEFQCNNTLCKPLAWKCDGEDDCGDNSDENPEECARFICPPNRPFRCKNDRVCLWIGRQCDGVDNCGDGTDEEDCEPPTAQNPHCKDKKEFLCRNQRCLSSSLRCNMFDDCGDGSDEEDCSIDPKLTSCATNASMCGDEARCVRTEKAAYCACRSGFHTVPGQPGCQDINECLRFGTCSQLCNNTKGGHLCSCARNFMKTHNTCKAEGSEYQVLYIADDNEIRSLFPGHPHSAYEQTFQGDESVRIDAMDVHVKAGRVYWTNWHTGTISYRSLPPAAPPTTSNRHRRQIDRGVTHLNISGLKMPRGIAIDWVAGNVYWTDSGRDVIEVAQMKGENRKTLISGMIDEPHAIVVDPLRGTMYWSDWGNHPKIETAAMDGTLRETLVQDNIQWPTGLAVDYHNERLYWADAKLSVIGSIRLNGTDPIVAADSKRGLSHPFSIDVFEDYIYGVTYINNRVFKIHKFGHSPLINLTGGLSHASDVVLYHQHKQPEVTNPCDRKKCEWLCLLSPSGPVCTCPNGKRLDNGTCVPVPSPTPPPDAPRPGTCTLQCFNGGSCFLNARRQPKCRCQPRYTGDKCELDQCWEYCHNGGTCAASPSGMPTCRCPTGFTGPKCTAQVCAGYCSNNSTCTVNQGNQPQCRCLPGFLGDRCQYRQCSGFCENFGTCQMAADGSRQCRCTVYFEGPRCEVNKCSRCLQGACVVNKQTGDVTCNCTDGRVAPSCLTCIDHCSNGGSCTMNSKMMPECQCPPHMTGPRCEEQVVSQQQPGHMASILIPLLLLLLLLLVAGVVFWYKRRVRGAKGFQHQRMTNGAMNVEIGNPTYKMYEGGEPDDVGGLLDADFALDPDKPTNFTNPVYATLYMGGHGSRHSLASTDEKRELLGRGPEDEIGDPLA

Substance: insulin (ligand)
ED50 for blocking IGFBP-3-induced inhibition of DNA synthesis in Mv1Lu cells [2]: 1 nM

Substance: cell surface annexin VI of mouse embryonic fibroblasts (MEF and PEA-13 cells) (from UniProt P14824 2-673) (receptor)
percent of LRP-1-bound 125I-α2M* co-immunoprecipitated by anti-annexin VI IgG [4]: 40%

Substance: human low density lipoprotein (LDL) (from UniProt P04114 28-4563)
IC50 [6]: 5 µg/mL

Substance: human transferrin (from UniProt P02787 20-698) (ligand)
IC50 [3]: 500 nM

The remaining lines, values ahead:

ED50 for blocking IGFBP-3-induced growth inhibition in Mv1Lu cells [1]: 0.3 nM
Substance: (Q^3A^4Y^15L^16) IGF-I (from UniProt P05019 49-118) (ligand)

IC50 [3]: 50 nM
Substance: bovine lactoferrin (from UniProt P24627 20-708) (ligand)

IC50 [5]: 5 µg/mL
Substance: human receptor-associated protein (RAP) (from UniProt P30533 35-357) (ligand)

IC50 [7]: 150 nM
Substance: native α2M (human) (from UniProt P01023 24-1474) (ligand)
